Target: LexA-DP-1 (pLEX(HIS).DP-1): complete bacterial LexA protein fused to DP-1 from residue 59 to 410 (bacterial; murine) (UniProt Q08639)

transcriptional activity of the E2F site reporter p4x WT CYC1 in yeast: > 6 fold
Substance: GAD-E2F-5 (pGAD.E2F-5): entire murine E2F-5 as a hybrid with the activation domain of the yeast GAL4 protein (768-881) (from UniProt P04386)

— patent US20030022260A1
